Biological target: T1, non-reduced CFH
T1 construct: also called CFH (NON-REDUCED)
T1 chain: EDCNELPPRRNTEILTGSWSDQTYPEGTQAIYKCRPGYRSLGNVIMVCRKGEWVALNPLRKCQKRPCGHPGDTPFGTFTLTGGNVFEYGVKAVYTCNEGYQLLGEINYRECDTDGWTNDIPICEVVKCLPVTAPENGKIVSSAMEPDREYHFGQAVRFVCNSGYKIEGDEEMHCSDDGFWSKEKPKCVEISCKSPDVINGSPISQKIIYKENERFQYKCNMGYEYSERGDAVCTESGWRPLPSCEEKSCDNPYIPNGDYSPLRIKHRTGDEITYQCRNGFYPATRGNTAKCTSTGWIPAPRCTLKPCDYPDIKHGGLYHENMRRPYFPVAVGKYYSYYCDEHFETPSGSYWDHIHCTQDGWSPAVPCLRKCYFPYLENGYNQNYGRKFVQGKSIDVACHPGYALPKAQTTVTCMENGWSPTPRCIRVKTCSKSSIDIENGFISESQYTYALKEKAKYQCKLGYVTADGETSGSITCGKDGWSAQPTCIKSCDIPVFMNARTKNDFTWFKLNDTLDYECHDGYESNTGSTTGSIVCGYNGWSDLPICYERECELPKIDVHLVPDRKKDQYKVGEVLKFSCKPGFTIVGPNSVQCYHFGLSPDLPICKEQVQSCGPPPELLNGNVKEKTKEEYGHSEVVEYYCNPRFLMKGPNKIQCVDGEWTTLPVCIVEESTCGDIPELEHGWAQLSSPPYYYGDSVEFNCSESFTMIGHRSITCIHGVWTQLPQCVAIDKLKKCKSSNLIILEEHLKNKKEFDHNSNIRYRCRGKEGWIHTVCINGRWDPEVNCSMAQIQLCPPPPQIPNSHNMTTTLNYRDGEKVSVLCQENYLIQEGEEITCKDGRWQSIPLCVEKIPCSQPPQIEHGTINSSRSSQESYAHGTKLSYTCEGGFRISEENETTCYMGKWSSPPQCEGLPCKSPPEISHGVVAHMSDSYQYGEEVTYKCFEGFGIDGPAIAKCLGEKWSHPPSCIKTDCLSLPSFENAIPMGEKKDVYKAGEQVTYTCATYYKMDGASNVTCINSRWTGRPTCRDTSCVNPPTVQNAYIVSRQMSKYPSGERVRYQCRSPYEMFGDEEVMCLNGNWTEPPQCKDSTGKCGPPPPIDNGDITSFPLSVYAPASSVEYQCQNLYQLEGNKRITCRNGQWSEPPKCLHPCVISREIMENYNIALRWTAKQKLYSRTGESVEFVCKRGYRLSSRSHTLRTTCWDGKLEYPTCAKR
Test: direct ELISA on non-reduced CFH

B1: ATL4717 (antibody, human IgG1, kappa, V domains shown)
VH: QVQLVESGGGMVQPGRSLRLSCAASGFTFSIYGMHWVRQAPGRGLEWVAVMSFDGKTKYYADSVKGRFTISRDNSKNTLYLQMNSLRRVDTAVYYCAKGGATAAVFDSWGQGTLVTVSS
VL: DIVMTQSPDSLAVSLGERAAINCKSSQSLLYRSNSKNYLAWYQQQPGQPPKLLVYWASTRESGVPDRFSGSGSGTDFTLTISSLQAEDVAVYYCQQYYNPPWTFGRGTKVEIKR
notes: Human IgG1; also called ATL0004717; ATL04717
EC50 (read off the curve): ~200 pM

Reference: patent US20250304666A1 (ALCHEMAB THERAPEUTICS, published 2025)
